Measurements: publication PMC3050645

Substrate: [O-][Cl+]O
Assay: Clark-type O2 electrode, initial rates
Format: biochemical, Dechloromonas aromatica (nom. nud.)
Conditions: pH 5.2, 4 °C, 100 mM citrate-phosphate

B1: Chlorite dismutase (Cld) (Dechloromonas aromatica RCB) (protein)
chain: MQPMQSMKIERGTILTQPGVFGVFTMFKLRPDWNKVPVAERKGAAEEVKKLIEKHKDNVLVDLYLTRGLETNSDFFFRINAYDLAKAQTFMREFRSTTVGKNADVFETLVGVTKPLNYISKDKSPGLNAGLSSATYSGPAPRYVIVIPVKKNAEWWNMSPEERLKEMEVHTTPTLAYLVNVKRKLYHSTGLDDTDFITYFETDDLTAFNNLMLSLAQVKENKFHVRWGSPTTLGTIHSPEDVIKALAD
With B1 the Km was 620 ± 70 µM, the kcat was 20000 ± 6000 s⁻¹ and the kcat/Km was 3.2e+07 ± 4e+06 M⁻¹ s⁻¹.
